To fix the notation:
B1: Bax C-terminal 20-residue peptide, lysines replaced with glutamates (charge reversal mutant) (peptide)
peptide: VTIFVAGVLTASLTIWEEMG
notes: K189/K190 replaced by EE; also called CT20 Bax EE; CT20-EE
B2: Bax C-terminal 20-residue peptide, lysines replaced with leucines (charge neutralization mutant) (peptide)
peptide: VTIFVAGVLTASLTIWLLMG
notes: K189/K190 replaced by LL; also called CT20 Bax LL; CT20-LL
B3: Bax C-terminal 20-residue peptide (CT20p), wild type (peptide)
peptide: Ac-VTIFVAGVLTASLTIWKKMG-NH2
notes: Synthetic peptide of the last 20 amino acids of Bax; also called CT20 Bax WT; CT20 peptide

The series concerns the molecule itself. As to the kind of experiment: kinetics of calcein release from lipid vesicles; peptide self-association within the membrane.
As to B1, the binding result is “binds”.

Regarding B2, the binding result was “binds”.

Consider B3, for which the binding result was “binds”.

The values above are taken from patent publication US20140255299A1 (UNIVERSITY OF CENTRAL FLORIDA RESEARCH FOUNDATION, published 2014).
